Where a chain is given by its changes, count along the chain named.
B1: anti-Flt-1 antibody 21B3 (antibody, V domains shown)
VH: ELQLVESGGGLVQPGGSLRLSCAASGFTFRDYSMSWVRQAPGKGLEWVSAISWNGDSTYYAESMKGRFTISRDNAKNTLYLQMNSLKSEDTAVYYCAKSWATPIESLYYYGMDYWGKGTLVTVSS
VL: SYELTQSPSVSVALRQTAKITCGGNNIGSQTAQWYQQKPGQAPVLVIYANNRRPSGIPERFSGSKSGNTATLTISGAQAEDEADYYCQVWDGSTQAIVFGGGTHLTVL
notes: VL is LC_21B3; IgG with wild-type Fc; also called 21B3 WT; clone 21B3
B2: anti-Flt-1 antibody 27H9 (antibody, human IgG1, lambda, V domains shown)
VH: B1 VH with L2V, V5L, M64A, A75S, K87R, S88A, M112S, K117Q
VL: SYELTQPLSVSVALRQTARITCGGNNIGSQTAQWYQQKPGQAPVLVIYANNRRPSGIPERFSGSKSGNTATLTISRAQAEDEADYYCQVWDESTQAIVFGGGTKLTVLG
notes: also called 27H9 WT; 27H9 WT 23/07
B3: anti-Flt-1 antibody 27H6 (antibody, human IgG1, lambda, V domains shown)
VH: B1 VH with R30S, M34A, N54S, M64V, S71F, A75S, K87R, S88A, M112S, K117Q
VL: B2 VL with T17A, R19K, E80G, E92G
B4: anti-Flt-1 antibody 27H4 (antibody, human IgG1, lambda, V domains shown)
VH: B1 VH with M64L, K87R, S88A, M112S, K117Q
VL: B2 VL with R15G, D91E, E92D

Legend:
[1] = molecular target: T1, recombinant human soluble Flt-1 (human, UniProt P17948 27-758); assay: human competition ELISA with human sFlt-1 and VEGF; blocked ligand VEGF; antibody titrated
T1 construct: Recombinant soluble form (immunogen bought from ABCAM); also called human sFlt-1; sFlt-1

[2] = molecular target: T1, recombinant human soluble Flt-1; assay: VEGF:sFlt1 binding assay (competition ELISA); blocked ligand VEGF; antibody titrated

T1 sequence (P17948 27-758 limits assumed): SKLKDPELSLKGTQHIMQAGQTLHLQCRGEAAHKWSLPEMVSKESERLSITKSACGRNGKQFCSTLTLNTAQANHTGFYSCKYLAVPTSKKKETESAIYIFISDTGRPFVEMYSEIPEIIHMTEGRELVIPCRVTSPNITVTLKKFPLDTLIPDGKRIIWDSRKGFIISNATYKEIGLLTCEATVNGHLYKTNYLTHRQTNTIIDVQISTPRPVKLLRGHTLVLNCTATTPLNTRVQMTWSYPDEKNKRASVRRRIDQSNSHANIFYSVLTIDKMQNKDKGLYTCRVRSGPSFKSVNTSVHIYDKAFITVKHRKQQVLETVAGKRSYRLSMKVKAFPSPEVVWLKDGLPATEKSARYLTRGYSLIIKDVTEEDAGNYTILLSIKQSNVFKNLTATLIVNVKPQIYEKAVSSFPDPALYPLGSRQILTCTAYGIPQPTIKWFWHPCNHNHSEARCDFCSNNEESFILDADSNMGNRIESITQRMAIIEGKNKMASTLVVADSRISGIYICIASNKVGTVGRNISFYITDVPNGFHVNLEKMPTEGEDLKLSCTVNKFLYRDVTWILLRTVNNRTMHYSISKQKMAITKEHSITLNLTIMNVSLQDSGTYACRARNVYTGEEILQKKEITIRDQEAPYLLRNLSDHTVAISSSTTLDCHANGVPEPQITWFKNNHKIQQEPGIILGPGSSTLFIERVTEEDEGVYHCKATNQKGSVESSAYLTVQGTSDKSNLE

Binder | IC50 (read off the curve) [1] | IC50 (read off the curve) [2]
B1 | ~3 ng/mL | –
B2 | – | ~10 ng/mL
B3 | – | ~6 ng/mL
B4 | – | ~10 ng/mL
